Biological target: H-2 I-A^b class II MHC molecule (mouse (endogenous in LB27.4))
Test: radioligand binding

B1: 14-mer N-acetylated P. merdae β-hex peptide (peptide)
peptide: Ac-KWDYRESRVWVNDQ-NH2
  fold lower binding than the P. goldsteinii epitope: 3 fold

From paper doi:10.1101/2020.08.05.236513
